Values quoted from earlier work in article PMC4741949.

Molecular target: EGFR wild-type (human) (UniProt P00533)
Details: 2'F-pyrimidines (2'F-C, 2'F-U), RT-qPCR: 15 min 37 C, 100 ug/ml polyinosine, DPBS washes, flow cytometry: DPBS, 30 min, confocal: DMEM without FBS, UV cross-linking buffer not given

In the case of “GCCUUAGUAACGUGCUUUGAUGUCGAUUCGACAGGAGGC [CL4]”, the Kd is given as 10 nM.
